The results in this text go back to US20250333541A1, “ANTIBODY, AND DRUG CONJUGATE AND USE THEREOF” (EVOPOINT BIOSCIENCES CO., LTD., priority 2022, published 2025).

Positions count from the first letter of the chain named.

The target in experiment [1] is T1, human TF-His (human, UniProt P13726 33-251).
T1 construct: range 33-251; Recombinant extracellular segment expressed in HEK293-EBNA cells and purified on a nickel column; also called h.TF-His; h; TF-his; not shown: His tag from vector pTT5-His
Nature of the experiment: antigenic protein-based ELISA, after conjugation with B81 (TF antigen species not stated). As for the experimental part:
(§1) The ELISA plate was coated overnight with TF antigen (h.TF-His or c.TF-His antigen) in 50 mM carbonate coating buffer (CBS coating solution) at a coating concentration of 1 μg/mL in a volume of 100 μL at 4° C. The next day, the coating solution was removed, each well was washed once with 300 μL of PBS, and 100 μL of 2% BSA (Biotopped, A6020) in PBS was added to each well for blocking at 37° C. for 2 h. The test sample was subjected to a gradient dilution with 2% BSA in PBS to establish 11 concentration points. 100 μL of each of the samples obtained by the gradient dilution was added to the plate, and the plate was incubated at 37° C. for 2 h. The supernatant was removed, and each well was washed three times with 300 μL of PBST. 100 μL of HRP-conjugated secondary antibody in 2% BSA was added to each well, and the plate was incubated at 37° C. for 1 h. […] At the end of the incubation, the secondary antibody was removed, each well was washed five times with 300 μL of PBST, and 100 μL of TMB substrate (Huzhou InnoReagents Co., Ltd., TMB-S-004) was added to each well for color development for 5-20 min. 50 μL of 2 N HCl was added to each well to stop the reaction, and OD450 nm values were read using a microplate reader (manufacturer: MD, model: SpectraMax) and imported into GraphPad software for fitting and plotting to determine the binding of the samples to TF antigenic proteins.

Experiment [2] concerns the target T2, tissue factor (TF) on the surface of TF-positive tumor cells (human, UniProt P13726 33-295). In words: cell-based or functional assay.
Experiment [3] has as its target T2, tissue factor (TF) on the surface of …. In words: cell-based or functional assay. This is another data set of the same source.
For experiment [4] the target is unchanged. In words: cell-based or functional assay. The source holds these as a separate data set.
The target is the same in experiment [5]. In words: flow cytometry on KYSE520 cells. The procedure:
(§2) A TF low/medium-expressing cell line NCI-H358 (source: Nanjing Cobioer, CBP60136) and a TF high-expressing cell line KYSE520 (source: Nanjing Cobioer, CBP60658) were digested with trypsin, collected by centrifugation, and washed three times with pre-cooled PBS. The cells were resuspended in 1% BSA and seeded into a 96-well sharp-bottom plate at 3×10⁵ cells/well. Each of the antibodies obtained by the gradient dilution was added, and the plate was incubated at 4° C. for 1 h. The cells were washed three times with pre-cooled PBS. 1 μL of anti-human fluorescent secondary antibody (APC anti-human IgG Fc Antibody, Biolegend, 410712) was added to each well, and the plate was incubated at 4° C. for 0.5 h. The cells were washed three times with pre-cooled PBS, resuspended, and detected by a flow cytometer (Sony, LE-SA3800GA). The data were imported into GraphPad software for curve fitting.

Experiment [6] has the same target. In words: flow cytometry on NCI-H358 cells. As for the experimental part:
as §2
(Flow cytometry measures light scatter and fluorescence of single cells or particles in a stream.)

Experiment [7] has as its target T3, cynomolgus monkey TF-His (cynomolgus monkey, UniProt A0A2K5VX02 33-253).
T3 construct: range 33-252; Recombinant extracellular segment expressed in HEK293-EBNA cells and purified on a nickel column; also called c.TF-His; c; TF-his; not shown: His tag from vector pTT5-His
T3 sequence: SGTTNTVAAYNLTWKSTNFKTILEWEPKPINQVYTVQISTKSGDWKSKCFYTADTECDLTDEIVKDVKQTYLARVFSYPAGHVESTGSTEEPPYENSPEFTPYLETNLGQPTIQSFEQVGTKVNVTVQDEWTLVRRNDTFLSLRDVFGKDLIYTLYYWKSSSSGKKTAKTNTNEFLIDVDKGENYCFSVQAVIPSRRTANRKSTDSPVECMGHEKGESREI
Nature of the experiment: ELISA, plate coated with c.TF-His. The procedure: as §1
(§3) The assay was performed as described in the general methods. Briefly, an ELISA plate coated with a human TF-his protein or a cynomolgus monkey TF-his protein was blocked with 2% BSA at 37° C. for 2 h, and each of the antibodies obtained by the gradient dilution (starting at 10 μg/mL, 3-fold graded dilution, 11 concentration points) was added. The plate was incubated at 37° C. for 2 h.

Experiment [8] has as its target T1, human TF-His. Nature of the experiment: ELISA, plate coated with h.TF-His. As for the experimental part: as §1, §3
For experiment [9], the target named is T2, tissue factor (TF) on the surface of …. Nature of the experiment: cell ELISA on fixed NCI-H358 cells. As for the experimental part: TF antigen-positive cells (MDA-MB-231 or NCI-H358 cells) were seeded into a 96-well plate at 5×10⁴ cells/well one day prior to the experiment. On the day of the experiment, the culture supernatant was removed, each well was washed once with 300 μL of PBS, and 100 μL of 4% paraformaldehyde was added to each well for immobilization at room temperature for 20 min. The paraformaldehyde was removed, and each well was washed twice with 300 μL of PBS, and 100 μL of 2% BSA in PBS was added to each well for blocking at 37° C. for 2 h. After the blocking was completed, 30 μL of the test sample (hybridoma supernatant or purified antibody) was added to each well and the plate was incubated at 37° C. for 2 h. The liquid was removed, and each well was washed three times with 300 μL of PBST. 100 μL of HRP-conjugated secondary antibody in 2% BSA was added to each well, and the plate was incubated at 37° C. for 1 h. […] The secondary antibody was removed, each well was washed five times with 300 μL of PBST, and 100 μL of TMB substrate (Huzhou InnoReagents Co., Ltd., TMB-S-004) was added to each well for color development for 5-20 min. 50 μL of 2 N HCl was added to each well to stop the reaction, and OD450 nm values were read using a microplate reader (manufacturer: MD, model: SpectraMax) to determine the binding of the samples to TF-positive cells.
The assay was performed as described in the general methods. Briefly, TF antigen-positive NCI-H358 cells were digested with trypsin, collected, seeded into a 96-well plate at 5×10⁴ cells/well and incubated overnight, and then immobilized with 4% paraformaldehyde. After the paraformaldehyde was removed and the cells were washed with PBS, the plate was blocked with 2% BSA at 37° C. for 2 h. Each of the antibodies obtained by the gradient dilution (starting at 10 μg/mL, 3-fold graded dilution, 11 concentration points) was added. The plate was incubated at 37° C. for 2 h.
A general note: ELISA stands for enzyme-linked immunosorbent assay.

Experiment [10] has as its target T1, human TF-His. In words: BLI (ForteBio Octet), antibody on ProA sensor, TF-His as analyte. The procedure:
(§4) The dynamic affinity of the humanized antibodies was determined by ForteBio. The experimental procedures were as follows: a ProA sensor (18-5010, Octet) was taken out and pre-wetted with a PBST diluent (pH 7.4) for 10 min. The antibodies to be immobilized were diluted to 5 μg/mL. […] The program was set up, the sensor plate and sample plate were put in, then the program started. The sensor was regenerated with 20 mM glycine solution (pH 1.7). The data were analyzed using Octet analysis software to derive a result graph.
In general terms: BLI is a label-free optical method that tracks binding on a fibre tip over time.

Experiment [11] has as its target T3, cynomolgus monkey TF-His. Described as above. As for the experimental part:
as §4

Experiment [12] addresses T1, human TF-His. Nature of the experiment: antigenic protein-based ELISA, before conjugation (TF antigen species not stated). As for the experimental part: as §1

B1: 27H8H3-hz1-B81 (antibody, human IgG1, kappa, V domains shown)
VH: QVQLVQSGAEVKKPGASVKVSCKASGYTFTTYWMHWVRQAPGQGLEWMGMIDPSDSYTSYAQKFQGRVTLTVDTSTSTAYMELSSLRSEDTAVYYCTRGSGPGLFAYWGQGTLVTVSS
VL: DIQETQSPSSLSASVGDRVTITCRASQGISNYLNWYQQKPGKAPKLLIYHTSRLHSGVPSRFSGSVSGTDFTLTISSLQPEDFATYFCQQGNTLPYTFGQGTKVEIKR
modifications: drug-linker DL-01 (B81) on cysteine sulfhydryl group; prepared by the TF-ADC (DAR8) method (1 toxin molecule per light chain); drug-linker DL-01 (B81) on cysteine sulfhydryl groups; prepared by the TF-ADC (DAR8) method (3 toxin molecules per heavy chain)
Turning to B1, in experiment [1], the concentration giving a half-maximal response (EC50) is 3.43 ng/mL.

B2: 22F11H5-hz1-B81 (antibody, human IgG1, kappa, V domains shown)
VH: B1 VH with K13Q, S59T, T97A
VL: B1 VL with G28D, S30R, H55Q, V66G, F71Y, F87Y, T93M, L94P
modifications: drug-linker DL-01 (B81) on cysteine sulfhydryl group; prepared by the TF-ADC (DAR8) method (1 toxin molecule per light chain); drug-linker DL-01 (B81) on cysteine sulfhydryl groups; prepared by the TF-ADC (DAR8) method (3 toxin molecules per heavy chain)
Take B2: the EC50 in experiment [1] was 8.83 ng/mL.

B3: 2B12B10-hz1 (antibody, human IgG1, kappa, V domains shown)
VH: EVQLVESGGGLVQPGGSLRLSCAASGFAFSDSGMHWVRQAPGKGLEWVAYISRDSNTIYYADSVKGRFTISRDNAKNSLYLQMNSLRAEDTAVYYCGRRYYGDYFDYWGQGTLVTVSS
VL: DIVLTQSPATLSLSPGERATLSCRASQRVTNYLHWYQQKPGQSPRLLIKYASQSISGIPARFSGSGSGTDFTLTISSLEPEDFAVYFCQQSYNWPLTFGQGTKVEIKR
notes: Humanized IgG1 kappa
As for B3, the “Endocytosis rate (%) on NCI-H358 cells, 2 h” value in experiment [2] was 34.3%. In addition, the “Endocytosis rate (%) on NCI-H358 cells, 4 h” value in experiment [2] is 49.6%. Moreover, in experiment [3], the “IC50 (ng/mL), inhibition of FVIIa-induced IL-8 release by MDA-MB-231 cells” value was 128 ng/mL. In addition, in experiment [3], the “Maximum inhibition rate (%), FVIIa-induced IL-8 release by MDA-MB-231 cells” value was 94.1%. Further, the “coagulation time V50 (s), MDA-MB-231 cells + human plasma, 2 mM Ca2+, 50 µg/mL antibody” value in [4] was found to be 882 s. In experiment [4], the “coagulation time V50 (s), MDA-MB-231 cells + human plasma, 5 mM Ca2+, 20 µg/mL antibody” value was found to be 24.2 s. Moreover, the EC50 worked out at 140 ng/mL in [5]; 187 ng/mL in experiment [6]; 13.6 ng/mL in [7]; 6.72 ng/mL in [8]; 3.88 ng/mL in experiment [9]; 6.65 ng/mL in experiment [12]. The Kd in experiment [10] was 13.8 nM; in experiment [11], 33.8 nM. Besides, the koff in experiment [10] came out at 0.00289 s⁻¹; in [11], 0.0116 s⁻¹. Moreover, the figures for the kon in experiment [10] and in [11] were 209000 M⁻¹ s⁻¹ and 344000 M⁻¹ s⁻¹, respectively.

B4: 30G11B7-hz1 (antibody, human IgG1, kappa, V domains shown)
VH: B3 VH with Q13K, A28T, S32Y, H35F, D54G, N56T, Y95F, G97T
VL: EIVLTQSPDFQSVTPKEKVTITCRASQSISNYLHWYQQKPDQSPKLLIKYASQSISGVPSRFSGSGSGTDFTLTINSLEAEDAATYFCQQSYNWPLTFGQGTKVEIKR
notes: Humanized IgG1 kappa
For the molecule B4, in experiment [2], the “Endocytosis rate (%) on NCI-H358 cells, 2 h” value is 19.8%. Also, in experiment [2], the “Endocytosis rate (%) on NCI-H358 cells, 4 h” value turned out to be 46.1%. Also, in experiment [3], the “IC50 (ng/mL), inhibition of FVIIa-induced IL-8 release by MDA-MB-231 cells” value amounted to 129 ng/mL. For the same molecule, the “Maximum inhibition rate (%), FVIIa-induced IL-8 release by MDA-MB-231 cells” value in [3] came out at 100%. In [4], the “coagulation time V50 (s), MDA-MB-231 cells + human plasma, 2 mM Ca2+, 50 µg/mL antibody” value is 1450 s. Moreover, the “coagulation time V50 (s), MDA-MB-231 cells + human plasma, 5 mM Ca2+, 20 µg/mL antibody” value in experiment [4] worked out at 29.2 s. Also, the EC50 is 138 ng/mL in [5]; 145 ng/mL in experiment [6]; 20.8 ng/mL in experiment [7]; 7.91 ng/mL in experiment [8]; 4.73 ng/mL in experiment [9]; 7.68 ng/mL in [12]. Moreover, the results for the equilibrium dissociation constant (Kd) in experiment [10] and in experiment [11] were 25.8 nM and 146 nM, respectively. Also, the koff stood at 0.00506 s⁻¹ in [10] and 0.053 s⁻¹ in experiment [11]. The kon in [10] turned out to be 197000 M⁻¹ s⁻¹; in experiment [11] it was 364000 M⁻¹ s⁻¹.

B5: 30G11B7-hz1-B81 (antibody, human IgG1, kappa, V domains shown)
VH: B3 VH with Q13K, A28T, S32Y, H35F, D54G, N56T, Y95F, G97T
VL: B4 VL
modifications: drug-linker DL-01 (B81) on cysteine sulfhydryl group; prepared by the TF-ADC (DAR8) method (1 toxin molecule per light chain); drug-linker DL-01 (B81) on cysteine sulfhydryl groups; prepared by the TF-ADC (DAR8) method (3 toxin molecules per heavy chain)
The molecule B5 came in with an EC50 in experiment [1] of 7.75 ng/mL.

B6: 2B12B10-hz1-B81 (antibody, human IgG1, kappa, V domains shown)
VH: B3 VH
VL: B3 VL
modifications: drug-linker DL-01 (B81) on cysteine sulfhydryl group; prepared by the TF-ADC (DAR8) method (1 toxin molecule per light chain); drug-linker DL-01 (B81) on cysteine sulfhydryl groups; prepared by the TF-ADC (DAR8) method (3 toxin molecules per heavy chain)
notes: also called 2B12B10-B81
As to B6, in experiment [1], the EC50 is 3.76 ng/mL.

By EC50 is commonly meant the concentration giving half of the maximal effect. As a reminder, the Kd is the free concentration of one partner at which half of the binding sites on the other are occupied at equilibrium, for simple one-to-one binding. Broadly, the koff is the first-order rate constant of dissociation. By kon is commonly meant the rate constant with which the complex forms.
